From publication PMC7056577
Where “and” joins values, the source holds several entries; their conditions need not be identical. Equal values may be shown once.

Target: T1, Arabidopsis CRY1 expressed in transgenic Arabidopsis (GFP-CRY1 and Myc-CRY1) (Arabidopsis), Q43125
T1 chain: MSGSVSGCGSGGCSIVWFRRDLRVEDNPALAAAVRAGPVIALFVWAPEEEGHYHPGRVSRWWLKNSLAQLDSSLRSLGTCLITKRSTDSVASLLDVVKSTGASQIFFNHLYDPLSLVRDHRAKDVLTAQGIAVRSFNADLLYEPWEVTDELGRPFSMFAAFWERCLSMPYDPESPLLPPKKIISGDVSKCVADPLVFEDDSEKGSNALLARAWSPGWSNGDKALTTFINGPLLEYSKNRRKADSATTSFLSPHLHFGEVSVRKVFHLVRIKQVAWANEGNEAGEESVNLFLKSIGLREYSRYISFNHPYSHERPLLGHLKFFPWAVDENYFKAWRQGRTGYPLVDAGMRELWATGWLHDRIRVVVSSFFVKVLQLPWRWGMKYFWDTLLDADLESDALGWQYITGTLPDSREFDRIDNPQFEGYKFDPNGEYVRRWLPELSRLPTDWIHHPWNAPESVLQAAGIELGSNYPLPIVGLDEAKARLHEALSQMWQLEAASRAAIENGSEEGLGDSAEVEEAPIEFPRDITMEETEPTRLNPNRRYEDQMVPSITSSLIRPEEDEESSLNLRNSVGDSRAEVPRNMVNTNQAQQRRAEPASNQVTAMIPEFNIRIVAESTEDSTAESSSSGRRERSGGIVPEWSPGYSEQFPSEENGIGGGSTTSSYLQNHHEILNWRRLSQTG
Assay: co-IP
Conditions: remark: other sources report otherwise

60F50 (fluence rate of blue light for 50% photooligomerization after 60 seconds): 14.9 μmolm^−2s^−1 and 16.2 μmolm^−2s^−1
B1: Arabidopsis CRY1 expressed in transgenic Arabidopsis (GFP-CRY1 and Myc-CRY1), Q43125 1-681 (natural protein)
chain: MSGSVSGCGSGGCSIVWFRRDLRVEDNPALAAAVRAGPVIALFVWAPEEEGHYHPGRVSRWWLKNSLAQLDSSLRSLGTCLITKRSTDSVASLLDVVKSTGASQIFFNHLYDPLSLVRDHRAKDVLTAQGIAVRSFNADLLYEPWEVTDELGRPFSMFAAFWERCLSMPYDPESPLLPPKKIISGDVSKCVADPLVFEDDSEKGSNALLARAWSPGWSNGDKALTTFINGPLLEYSKNRRKADSATTSFLSPHLHFGEVSVRKVFHLVRIKQVAWANEGNEAGEESVNLFLKSIGLREYSRYISFNHPYSHERPLLGHLKFFPWAVDENYFKAWRQGRTGYPLVDAGMRELWATGWLHDRIRVVVSSFFVKVLQLPWRWGMKYFWDTLLDADLESDALGWQYITGTLPDSREFDRIDNPQFEGYKFDPNGEYVRRWLPELSRLPTDWIHHPWNAPESVLQAAGIELGSNYPLPIVGLDEAKARLHEALSQMWQLEAASRAAIENGSEEGLGDSAEVEEAPIEFPRDITMEETEPTRLNPNRRYEDQMVPSITSSLIRPEEDEESSLNLRNSVGDSRAEVPRNMVNTNQAQQRRAEPASNQVTAMIPEFNIRIVAESTEDSTAESSSSGRRERSGGIVPEWSPGYSEQFPSEENGIGGGSTTSSYLQNHHEILNWRRLSQTG
